Assay results taken from patent publication US7125658B2, “Small protein that interacts with a ribonucleotide reductase subunit and uses thereof” (The Trustees of Columbia University in the City of New York, priority 1998, dated 2006).

T1: Recombinant yeast Rnr1 protein (large subunit of ribonucleotide reductase) (yeast (Saccharomyces cerevisiae), UniProt P21524 1-888)
T1 construct: It is in monomer/dimer/tetramer equilibrium depending on dTTP; also called yeast R1 protein
T1 sequence (looked up): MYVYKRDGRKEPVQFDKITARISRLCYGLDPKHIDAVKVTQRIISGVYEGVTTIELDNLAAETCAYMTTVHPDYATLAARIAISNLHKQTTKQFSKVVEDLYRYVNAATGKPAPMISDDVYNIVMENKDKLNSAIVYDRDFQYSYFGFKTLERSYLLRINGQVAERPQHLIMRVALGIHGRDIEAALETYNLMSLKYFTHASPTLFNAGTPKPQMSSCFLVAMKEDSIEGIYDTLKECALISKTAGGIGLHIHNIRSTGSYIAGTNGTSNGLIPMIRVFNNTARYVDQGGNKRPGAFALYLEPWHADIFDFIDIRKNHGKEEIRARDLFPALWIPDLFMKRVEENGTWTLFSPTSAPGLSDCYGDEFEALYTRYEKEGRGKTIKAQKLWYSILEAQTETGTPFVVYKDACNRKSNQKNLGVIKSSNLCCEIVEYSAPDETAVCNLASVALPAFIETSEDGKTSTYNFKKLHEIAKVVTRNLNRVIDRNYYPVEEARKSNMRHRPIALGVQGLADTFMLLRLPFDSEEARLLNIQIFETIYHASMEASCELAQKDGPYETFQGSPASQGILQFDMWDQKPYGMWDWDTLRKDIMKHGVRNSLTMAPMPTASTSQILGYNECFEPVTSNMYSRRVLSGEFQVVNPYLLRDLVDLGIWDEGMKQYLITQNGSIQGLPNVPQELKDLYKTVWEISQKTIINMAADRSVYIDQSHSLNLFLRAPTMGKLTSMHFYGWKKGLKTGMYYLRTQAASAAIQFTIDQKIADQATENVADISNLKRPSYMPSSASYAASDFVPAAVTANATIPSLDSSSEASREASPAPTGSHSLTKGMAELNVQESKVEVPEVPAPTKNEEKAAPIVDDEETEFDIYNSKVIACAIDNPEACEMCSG

T2: mouse RNR (Mus musculus, UniProt P07742)
T2 construct: made in house; host or cells: E. coli BL21 (DE3)pLysS, pET3a
T2 sequence (P07742 1-792): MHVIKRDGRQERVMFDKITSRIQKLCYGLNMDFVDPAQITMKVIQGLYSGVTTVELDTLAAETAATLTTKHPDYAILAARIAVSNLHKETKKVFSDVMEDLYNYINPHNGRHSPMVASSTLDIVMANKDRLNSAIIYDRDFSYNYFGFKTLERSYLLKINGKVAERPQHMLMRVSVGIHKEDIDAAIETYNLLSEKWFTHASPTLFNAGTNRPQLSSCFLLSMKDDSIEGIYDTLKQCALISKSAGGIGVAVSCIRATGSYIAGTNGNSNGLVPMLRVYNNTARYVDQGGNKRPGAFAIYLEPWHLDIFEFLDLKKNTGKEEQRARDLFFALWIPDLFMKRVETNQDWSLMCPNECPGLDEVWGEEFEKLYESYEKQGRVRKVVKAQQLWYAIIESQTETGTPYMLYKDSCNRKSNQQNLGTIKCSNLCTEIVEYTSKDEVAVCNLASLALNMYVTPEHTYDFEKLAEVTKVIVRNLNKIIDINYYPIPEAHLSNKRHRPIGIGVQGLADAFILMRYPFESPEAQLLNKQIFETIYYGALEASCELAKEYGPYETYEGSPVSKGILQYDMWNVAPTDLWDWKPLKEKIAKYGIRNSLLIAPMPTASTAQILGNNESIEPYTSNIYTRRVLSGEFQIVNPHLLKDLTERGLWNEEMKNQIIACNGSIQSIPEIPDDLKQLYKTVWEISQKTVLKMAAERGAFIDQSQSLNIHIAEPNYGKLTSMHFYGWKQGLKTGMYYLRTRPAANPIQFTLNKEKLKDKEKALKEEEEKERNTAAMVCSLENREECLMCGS

B1: Recombinant yeast Sml1 protein (other)
chain: MQNSQDYFYAQNRCQQQQAPSTLRTVTMAEFRRVPLPPMAEVPMLSTQNSMGSSASASASSLEMWEKDLEERLNSIDHDMNNNKFGSGELKSMFNQGKVEEMDF
notes: Immobilized on the BIAcore chip in the biosensor experiments; also called YML058W product
B2: Sml1p: 104 amino acid yeast protein encoded by YML058w (SML1) that binds Rnr1 and inhibits ribonucleotide reductase; recombinant, expressed in E. coli (protein)
chain: MQNSQDYFYAQNRCQQQQAPSTLRTVTMAEFRRVPLPPMAEVPMLSTQNSMGSSASASASSLEMWEKDLEERLNSIDHDMNNNKFGSGELKSMFNQGKVEEMDF

Columns and labels:
[1] = target: T1, Recombinant yeast Rnr1 protein (large …); assay: BIAcore SPR, calculated from rate constants; calculated from the rate constants, not the equilibrium fit
Experimental: BIAcore biosensor analysis. The interaction between Sml1p and either yeast Rnr1p or mouse R1 protein was studied by biosensor analysis using the BIAcore method (Biacore AB). The Sml1 protein was prepared in 10 mM sodium acetate, pH 5.2, at a concentration of 0.44 mg/ml; it was then immobilized on the dextran layer of the sensor chip as described previously for the mouse R2 protein (17). The ligand proteins were equilibrated with running buffer (10 mM Hepes-KOH, pH 7.4, 200 mM potassium acetate, 1 mM EDTA, 5 mM magnesium acetate and 0.05% Surfactant P20 (BIAcore). The interactions were studied at a constant temperature of 22° C. and a constant flow of 5 μl/min. Kinetics for the interaction of Sml1p with yeast Rnr1p was determined by allowing the immobilized Sml1p to interact with increasing concentrations of Rnr1p (18). The resonance unit (RU) is proportional to the mass, and 1 RU corresponds to a surface concentration of 1 pg of protein/mm² of the 100 nm thick dextran layer (19).
In control experiments, where the same series of Rnr1p solutions passed a sensor chip without immobilized Sml1p, a "bulk effect" gave a response of only about 60 RU. […] Calculating the equilibrium dissociation constant from these rate constants gave a K_0 of about 0.25 µM, which is close to the directly determined K_0.

mouse RNR = target: T2, mouse RNR; assay: in vitro mouse ribonucleotide reductase CDP assay; format: biochemical; details: 300 fold molar excess of Sml1p (36 μg), 1 μg R1, increasing R2; dependent on R1 to R2 ratio
Experimental: FIG. 13 Inhibition of mouse RNR by the Sml1p. A series of tubes containing mouse RNR (1 μg of R1 protein and the indicated amounts of R2 protein) were incubated at 37° C. for 30 minutes as described in FIG. 9 in the absence (ã) or in the presence of 36 μg of Sml1p (o).
Inhibition of mouse ribonucleotide reductase by the Sml1protein. The effects of Sml1 protein on pure recombinant mouse ribonucleotide reductase were tested in a CDP assay in the presence of ATP as a positive effector (FIG. 13). In the figure, RNR activity in the presence of a fixed amount of R1 protein, and in the presence or absence of a 300 fold molar excess of Sml1p, are plotted against increasing concentrations of the R2 protein.

Molecule | Kd [1] | inhibition of mouse RNR compared with yeast RNR (mouse RNR)
B1 | ~250 nM | 
B2 |  | less pronounced
